{
  "source": "patent US20180346932A1",
  "target": "dCas9-GCN4 fusion protein of System 3 (dCas9 with 5 copies of GCN4 peptides, linker of 22 amino acids) (S. pyogenes) (UniProt Q99ZW2)",
  "assay": "cell-based or functional assay",
  "data": [
    {"substance": "GCN4 peptide antibody (scFv)-superfolder green fluorescent protein (sfGFP)-TET1CD fusion protein (from UniProt Q8NFU7 1418-2136)", "values": [
      {"measurement": "demethylation of the Gfap STAT3 site in ESCs (COBRA, standardized demethylation percentage)", "value": 43, "unit": "%"}
    ]}
  ]
}
